Test results published in the nanobody polyreactivity screen of Harvey et al. (2022).

Assay: yeast display, Sf9 membrane polyspecificity reagent, FACS + sequencing; frameworks hold sequencing errors
Summary of the method: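 Synthetic nanobody libraries on Saccharomyces cerevisiae BJ5465 were galactose-induced for 36–48 hours, stained 1 hour at 4 °C with 10% biotinylated, detergent-solubilized Sf9 membrane reagent and enriched on streptavidin microbeads. FACS then separated cells into low and high (top ~1%) gates by anti-HA (expression) and streptavidin (reagent binding) fluorescence. Genes were colony-PCR amplified, MiSeq 2 × 250 sequenced and CDR-length filtered. A clone's polyreactivity label is that of its gate of origin.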

| Sequence | polyreactivity (PSR sort gate) |
| --- | --- |
| QVQLVESGGGLVQAGGSLRLSCAASGRTFWPNVMGWYRQAPGKERELVAAITWGDASTYYADSVKGRFTISRDNAKNTVYLQMNSLKPEDTAGYSCAASDYRSTYDYWGQGTQVTVSS | low polyreactivity |
| QVQLVESGGGLVQAGGSLRLSCAASGRTFWRYAMGWYRQAPGKERELVAAITSGGGSTYYADSVKGRFTISRDNAKNTVYLQMNSLKPEDTAVYYCNRAGRGRSFKGDYWGQGTQVTVSS | high polyreactivity |
| QVQLVESGGGLVQAGGSLRLSCAASGRTFWRYAMGWYRQAPGKERELVADISNSDTSTYYADSVKGRFTISRDNAKNSVYLQMKSLKPEDTAVYYCAARPFRFRLSDKYNYWGQGTQVTVSS | high polyreactivity |
| QVQLVESGGGLVQAGGSLRLSCAASGRTFWSNAMGWYRQAPGKERELVADITFSGGRTYYADSVKGRFTISRDNAKNTVYLQMNSLKPEDTAVYYCAASATPSGVGMDYWGQGTQVTVSS | low polyreactivity |
| QVQLVESGGGLVQAGGSLRLSCAASGRTFWSYAMGWYRPAPGKERELVAAINSSGDSTNYADSVKGRFTISRDNAKNTVYLQMNWLKPEDTAVYYCAADGGLLAGSDATVRMDYWGQGTQVTVSS | low polyreactivity |
| QVQLVESGGGLVQAGGSLRLSCAASGRTFWSYAMGWYRQAPGKERELVATINDSDGSTYADSVKGRFTISRDNAKNTVYLQMNSLKPEDTAVYYCNAQTRAGYYFGYGYWGQGTQVTVSS | low polyreactivity |
| QVQLVESGGGLVQAGGSLRLSCAASGRTFWTNAKGWYRQAPGKERDFFAAISWRGASTFYADSVKGRFTISRYNAKNTVYLQMNSLKPEDTAVYYCAAQSRTRSFYGKYDSWGQGTQVTVSS | low polyreactivity |
| QVQLVESGGGLVQAGGSLRLSCAASGRTFWTNAMGWYRQAPGKERELVAAISWTTGSTNYADSVKGRFTISRDNAKNTVYLQMNSLKPEDTAVYYWAADSQYGWPEYEYDYWGQGTQVTVSS | low polyreactivity |
| QVQLVESGGGLVQAGGSLRLSCAASGRTFWTYAMGWYRLAPGKERELVASISKSGGSTYADSVKGRFTITRDNAKNTVYLQMNSLKPEDTAVYYCATDLSYDVWFFGPDYDYWGQGTQVTVSS | low polyreactivity |
| QVQLVESGGGLVQAGGSLRLSCAASGRTFWVYAMGWYRQAPGKERELVAAISRSGVSTYYADSVKGRFTISRDNAKNTVYLQMNSLKPEDTAVYYCAAPLIYTPLKYHYWGQGTQVTVSS | low polyreactivity |
| QVQLVESGGGLVQAGGSLRLSCAASGRTFWWYAMGWYRQAPGKERALVAGISSGGSTYYADSVKGRCTISRDNAKKTVYLLMNSRKPEETAVYYCAKTYWYPWRASLWHEYDYWGQGTQVTVSS | low polyreactivity |
| QVQLVESGGGLVQAGGSLRLSCAASGRTFWYNAMGWYRQAPGKEREFVAAIRWTTGSTYYADSVKGRFTISRDNAKNTVYLQMNSLKPEDTAVYYCAASLYPVRRDYWGQGTQVTVSS | high polyreactivity |
| QVQLVESGGGLVQAGGSLRLSCAASGRTFWYNAMGWYRQAPGKERELVAVISSGAITYYADSVKGRFTISRDNAKNTVYLQMNSLKPEDTAVYYCAARSYLSLIDYWGQGTQVTVSS | high polyreactivity |
| QVQLVESGGGLVQAGGSLRLSCAASGRTFWYNAMGWYRQAPGKERELVAVISSGAITYYADSVKGRFTISRDNAKNTVYLQMNSLKPEDTAVYYCNAQRRGTYYWGQGTQVTVSS | high polyreactivity |
| QVQLVESGGGLVQAGGSLRLSCAASGRTFWYYAMGWYRQAPGKERELVAAITYRGGSTYYADSVKGRFTISRDNVKNTVYLQMNSLKPEDTAVYYCARRVDSYYGHTRYYYWGQGTQVTVSS | high polyreactivity |
| QVQLVESGGGLVQAGGSLRLSCAASGRTFWYYAMGWYRQAPGKERELVADITRRGGGTYYADSVKGRFTISRDNAKNTVYLQMNSLKPEDTAVYYCAVERWPRSYPPSYDYWGQGTQVTVSS | high polyreactivity |
| QVQLVESGGGLVQAGGSLRLSCAASGRTFWYYAMGWYRQAPGNERELVATISYRGGSTYYADSVKGRFTISRDNAKNTVYLQMNSLKPEDPAVYYSAAKQWWGGRPKVDYWGQGTQVTVSS | high polyreactivity |
| QVQLVESGGGLVQAGGSLRLSCAASGRTFWYYAMVWSRQAPGKERELVAGITFTGGRTYYADSVKGRFTISRDNSKNTVYLQMNSLKPEDTAVYYCAAAGLDVGRKDRDGYWGQGTQVTVSS | low polyreactivity |
| QVQLVESGGGLVQAGGSLRLSCAASGRTFWYYPMGGYRQEPGKERELVAAITRGTSTYADSVKGRFTISRDNAKTTVYLQMNSLKPEDTAVDYCAADTWGTRNSRYDYWGQGTQVTVSS | high polyreactivity |
| QVQLVESGGGLVQAGGSLRLSCAASGRTFYANAMGWYRQAPGKERELVAAISSSGSRTYYADSVKGRFTISRDNAKNTVYLQMNSLKPEDTAVYYCNAAAPYLTRQHWARDYWGQGTQVTVSS | high polyreactivity |
| QVQLVESGGGLVQAGGSLRLSCAASGRTFYANDMGWYRQAPGKERELVARITSGGSTYYADSVKGRFTISRDNAKNTVYLQMNSLKPEDTAVYYCAAVTRRFSYRYNYWGQGTQVTVSS | high polyreactivity |
| QVQLVESGGGLVQAGGSLRLSCAASGRTFYAYAMGWSRQAPGKERELVAAISWRGGDTYYADSVKGRFTISRDNAKNTVYLQMNSLKPEDTAVYYCAKYLSRQSGDGEYDYWGQGTQVTVSS | low polyreactivity |

| Sequence | polyreactivity (PSR sort gate) |
| --- | --- |
| QVQLVESGGGLVQAGGSLRLSCAASGRTFYAYAMGWYRQAPGKERELVAAISSGGSTYYADSVKGRFTISRDNAKNTVYLQMNSLKPEDTAVYYCNAGYYQWPFSGYDYWGQGTQVTVSS | low polyreactivity |
| QVQLVESGGGLVQAGGSLRLSCAASGRTFYAYAMGWYRQAPGKERELVSAISWRGGDTYYADSVKGRFTISRDYAKNTVYLQMHSLIPEDTAFYYCAADFTYTWDAAQGYDYWGQGPQVTVSS | low polyreactivity |
| QVQLVESGGGLVQAGGSLRLSCAASGRTFYDNAMGWYRQAPGKERELVAVISTSGARTYYADSVKGRFTISRDNAKNTVYLQMNSLKPEDTAVYYCAAGPALWQAYRMYYWGQGTQVTVSS | high polyreactivity |
| QVQLVESGGGLVQAGGSLRLSCAASGRTFYDYAKGWYRQAPGKERELVASITYYADSVKGRFTISRDNAKNTVYLQMNSLKPEDTSVYYCAKDLYSNDLYRRYDYWGQGTQVTVSS | low polyreactivity |
| QVQLVESGGGLVQAGGSLRLSCAASGRTFYDYAMGWYRQAPGKERELVAGIRWSGGSTYYADSVKGRFTISRDNAKNTVFLQMNSLKPEDTAVYYCAADWFAGVAADVEYDYWGQGTQVTVSS | low polyreactivity |
| QVQLVESGGGLVQAGGSLRLSCAASGRTFYEYAMGWYRQAPGKERELVAAITRSGGSTYYADSVKGRFTISRDNAKNTVYLQMNSLKPEDTAVYYCAADGIKGGVEYDYWGQGTQVTVSS | high polyreactivity |
| QVQLVESGGGLVQAGGSLRLSCAASGRTFYFYTMGWYRQAPGKERELVAAITLSGVSTYYADSVKGRFTISRDNAKITVYLQMNSLKPEDTAVYYCNAVYIRPGYRRYDYWGQGTQVTVSS | high polyreactivity |
| QVQLVESGGGLVQAGGSLRLSCAASGRTFYGNAMGWYRQAPGKERELVAAINYSGGRTFYADSVKGRFTISRDNAKNTVYLQMNSLKPEDTAVYYCAAQDTYYGLFSYWIPWSGYWGQGTQVTVSS | high polyreactivity |
| QVQLVESGGGLVQAGGSLRLSCAASGRTFYGNAMGWYRQAPGKERELVAAITTGGGNTYYADSVKGRFTISRDNAKNTVYLQMNSLKPEDTAVYYCAKCYRAYYWGFNYWGQGTQVTVSS | high polyreactivity |
| QVQLVESGGGLVQAGGSLRLSCAASGRTFYGYAMGWYIQAPGKERELVASISYSGGNTYYADSVKGRFTISRDNAKNTVYLQMNSLKPEDTAVYYCAAKARRPYSYHPYDYWGLGTQVTVSS | high polyreactivity |
| QVQLVESGGGLVQAGGSLRLSCAASGRTFYGYAMGWYRQAPGKERELVAAISSDTGGTDDTYYADSVKGRFTISRDNAKNTVYLQMNSLKPEDTAVYYCAAETEQGIIVTGLAYDYWGQGTQVTVSS | low polyreactivity |
| QVQLVESGGGLVQAGGSLRLSCAASGRTFYGYAMGWYRQAPGKERELVAAISSNNGRTYYADSVKGRFTISRDNAKNTVYLQMNSLKPEDTAVYYCAAEAVSILWRDYDYWGQGTQVTVSS | low polyreactivity |
| QVQLVESGGGLVQAGGSLRLSCAASGRTFYGYAMGWYRQAPGKERELVAAISVSGGSTYYADSVKGRFTISRDNAKNTVYLQMNSLKPEDTAVYYCATKGLFTNSPLYVSAYDYWGQGTQVTVSS | low polyreactivity |
| QVQLVESGGGLVQAGGSLRLSCAASGRTFYGYAMGWYRQAPGKERELVASISRDGSTNYADSVKGRFTISRDNAKNTVYLQMNSLKPEDTAVYYCAADWVYYRYWPYVGYDYWGQGTQVTVSS | low polyreactivity |
| QVQLVESGGGLVQAGGSLRLSCAASGRTFYGYAMGWYRQAPGKERELVATISGSGASTYYADSVKGRFTISRDNAKNTVYLQMNSLKPEVTAVYYFAARYVTNRHSRYYYWGQGTQVTVSS | high polyreactivity |
| QVQLVESGGGLVQAGGSLRLSCAASGRTFYGYGMGWYRQAAGKEREFVAAISYSGGSTYYADSVKGRFTISRDNAKNTVYLQMNSLKPEDTAVYYCAARNRGSGFYYWGQGTQVTVSS | high polyreactivity |
| QVQLVESGGGLVQAGGSLRLSCAASGRTFYGYVMGWYRQAPGQERELVAAISRSVGSTYYADSVKGRFTISRDNAKNTVYLQMNSLKPEDTAVYYCATSVYGGVDYWGQGTQVTVSS | high polyreactivity |
| QVQLVESGGGLVQAGGSLRLSCAASGRTFYINAMGWYRQAPGKERELVAGINSRGGSTYADSVKGRFTISRDNAKNTVYLQMNSLNPEDTAVYYCNARRKYLGYNYWGQGTQVTVSS | high polyreactivity |
| QVQLVESGGGLVQAGGSLRLSCAASGRTFYINAMGWYRQAPGKERELVATITRSGGSTYYADSVKGRFTISRDNAKNTVYLQMNSLKPEDTAVYYCAAGGGYYRYRDYDYWGQGTQVTVSS | high polyreactivity |
| QVQLVESGGGLVQAGGSLRLSCAASGRTFYIYAMGWYRQAPGKERELVAAITSVGSTNYADSVKGRFTISRDNAKNTVYLQMNSLKQEVTAVYYCAAESTEGTSGDYDYWGQGTQVTVSS | low polyreactivity |
| QVQLVESGGGLVQAGGSLRLSCAASGRTFYIYAMGWYRQAPGNERELVADISSSDDSTYYADSEKGRFTISRDNAKNTVYLQMNSLKPEDTAVYYCAAELYYFFDEHYYWGQGTQVTVSS | low polyreactivity |
